Measured values reported in patent US10196657B2, “Methods of producing 7-carbon chemicals via methyl-ester shielded carbon chain elongation” (INVISTA North America S.á r.l., priority 2012, dated 2019).

B1: SEQ ID NO 10: Pseudomonas syringae ω-transaminase, Genbank Accession No. AAY39893.1 (protein, listed as Pseudomonas syringae)
chain: MSANNPQTLEWQALSSEHHLAPFSDYKQLKEKGPRIITRAEGVYLWDSEGNKILDGMSGLWCVAIGYGREELADAASKQMRELPYYNLFFQTAHPPVLELAKAISDIAPEGMNHVFFTGSGSEGNDTMLRMVRHYWALKGQPNKKTIISRVNGYHGSTVAGASLGGMTYMHEQGDLPIPGVVHIPQPYWFGEGGDMTPDEFGIWAAEQLEKKILELGVENVGAFIAEPIQGAGGVIVPPDSYWPKIKEILSRYDILFAADEVICGFGRTSEWFGSDFYGLRPDMMTIAKGLTSGYVPMGGLIVRDEIVAVLNEGGDFNHGFTYSGHPVAAAVALENIRILREEKIVERVRSETAPYLQKRLRELSDHPLVGEVRGVGLLGAIELVKDKTTRERYTDKGAGMICRTFCFDNGLIMRAVGDTMIIAPPLVISFAQIDELVEKARTCLDLTLAVLQG
B2: SEQ ID NO 13: Vibrio fluvialis ω-transaminase, Genbank Accession No. AEA39183.1 (protein, listed as Vibrio fluvialis)
chain: MNKPQSWEARAETYSLYGFTDMPSLHQRGTVVVTHGEGPYIVDVNGRRYLDANSGLWNMVAGFDHKGLIDAAKAQYERFPGYHAFFGRMSDQTVMLSEKLVEVSPFDSGRVFYTNSGSEANDTMVKMLWFLHAAEGKPQKRKILTRWNAYHGVTAVSASMTGKPYNSVFGLPLPGFVHLTCPHYWRYGEEGETEEQFVARLARELEETIQREGADTIAGFFAEPVMGAGGVIPPAKGYFQAILPILRKYDIPVISDEVICGFGRTGNTWGCVTYDFTPDAIISSKNLTAGFFPMGAVILGPELSKRLETAIEAIEEFPHGFTASGHPVGCAIALKAIDVVMNEGLAENVRRLAPRFEERLKHIAERPNIGEYRGIGFMWALEAVKDKASKTPFDGNLSVSERIANTCTDLGLICRPLGQSVVLCPPFILTEAQMDEMFDKLEKALDKVFAEVA
B3: SEQ ID NO 3: Mycobacterium smegmatis carboxylate reductase, Genbank Accession No. ABK71854.1 (protein, listed as Mycobacterium smegmatis)
chain: MTSDVHDATDGVTETALDDEQSTRRIAELYATDPEFAAAAPLPAVVDAAHKPGLRLAEILQTLFTGYGDRPALGYRARELATDEGGRTVTRLLPRFDTLTYAQVWSRVQAVAAALRHNFAQPIYPGDAVATIGFASPDYLTLDLVCAYLGLVSVPLQHNAPVSRLAPILAEVEPRILTVSAEYLDLAVESVRDVNSVSQLVVFDHHPEVDDHRDALARAREQLAGKGIAVTTLDAIADEGAGLPAEPIYTADHDQRLAMILYTSGSTGAPKGAMYTEAMVARLWTMSFITGDPTPVINVNFMPLNHLGGRIPISTAVQNGGTSYFVPESDMSTLFEDLALVRPTELGLVPRVADMLYQHHLATVDRLVTQGADELTAEKQAGAELREQVLGGRVITGFVSTAPLAAEMRAFLDITLGAHIVDGYGLTETGAVTRDGVIVRPPVIDYKLIDVPELGYFSTDKPYPRGELLVRSQTLTPGYYKRPEVTASVFDRDGYYHTGDVMAETAPDHLVYVDRRNNVLKLAQGEFVAVANLEAVFSGAALVRQIFVYGNSERSFLLAVVVPTPEALEQYDPAALKAALADSLQRTARDAELQSYEVPADFIVETEPFSAANGLLSGVGKLLRPNLKDRYGQRLEQMYADIAATQANQLRELRRAAATQPVIDTLTQAAATILGTGSEVASDAHFTDLGGDSLSALTLSNLLSDFFGFEVPVGTIVNPATNLAQLAQHIEAQRTAGDRRPSFTTVHGADATEIRASELTLDKFIDAETLRAAPGLPKVTTEPRTVLLSGANGWLGRFLTLQWLERLAPVGGTLITIVRGRDDAAARARLTQAYDTDPELSRRFAELADRHLRVVAGDIGDPNLGLTPEIWHRLAAEVDLVVHPAALVNHVLPYRQLFGPNVVGTAEVIKLALTERIKPVTYLSTVSVAMGIPDFEEDGDIRTVSPVRPLDGGYANGYGNSKWAGEVLLREAHDLCGLPVATFRSDMILAHPRYRGQVNVPDMFTRLLLSLLITGVAPRSFYIGDGERPRAHYPGLTVDFVAEAVTTLGAQQREGYVSYDVMNPHDDGISLDVFVDWLIRAGHPIDRVDDYDDWVRRFETALTALPEKRRAQTVLPLLHAFRAPQAPLRGAPEPTEVFHAAVRTAKVGPGDIPHLDEALIDKYIRDLREFGLI
B4: SEQ ID NO 6: Mycobacterium massiliense carboxylate reductase, Genbank Accession No. EIV11143.1 (protein)
chain: MTNETNPQQEQLSRRIESLRESDPQFRAAQPDPAVAEQVLRPGLHLSEAIAALMTGYAERPALGERARELVIDQDGRTTLRLLPRFDTTTYGELWSRTTSVAAAWHHDATHPVKAGDLVATLGFTSIDYTVLDLAIMILGGVAVPLQTSAPASQWTTILAEAEPNTLAVSIELIGAAMESVRATPSIKQVVVFDYTPEVDDQREAFEAASTQLAGTGIALETLDAVIARGAALPAAPLYAPSAGDDPLALLIYTSGSTGAPKGAMHSENIVRRWWIREDVMAGTENLPMIGLNFMPMSHIMGRGTLTSTLSTGGTGYFAASSDMSTLFEDMELIRPTALALVPRVCDMVFQRFQTEVDRRLASGDTASAEAVAAEVKADIRDNLFGGRVSAVMVGSAPLSEELGEFIESCFELNLTDGYGSTEAGMVFRDGIVQRPPVIDYKLVDVPELGYFSTDKPHPRGELLLKTDGMFLGYYKRPEVTASVFDADGFYMTGDIVAELAHDNIEIIDRRNNVLKLSQGEFVAVATLEAEYANSPVVHQIYVYGSSERSYLLAVVVPTPEAVAAAKGDAAALKTTIADSLQDIAKEIQLQSYEVPRDFIIEPQPFTQGNGLLTGIAKLARPNLKAHYGPRLEQMYAEIAEQQAAELRALHGVDPDKPALETVLKAAQALLGVSSAELAADAHFTDLGGDSLSALSFSDLLRDIFAVEVPVGVIVSAANDLGGVAKFVDEQRHSGGTRPTAETVHGAGHTEIRAADLTLDKFIDEATLHAAPSLPKAAGIPHTVLLTGSNGYLGHYLALEWLERLDKTDGKLIVIVRGKNAEAAYGRLEEAFDTGDTELLAHFRSLADKHLEVLAGDIGDPNLGLDADTWQRLADTVDVIVHPAALVNHVLPYNQLFGPNVVGTAEIIKLAITTKIKPVTYLSTVAVAAYVDPTTFDEESDIRLISAVRPIDDGYANGYGNAKWAGEVLLREAHDLCGLPVAVFRSDMILAHSRYTGQLNVPDQFTRLILSLIATGIAPGSFYQAQTTGERPLAHYDGLPGDFTAEAITTLGTQVPEGSEGFVTYDCVNPHADGISLDNFVDWLIEAGYPIARIDNYTEWFTRFDTAIRGLSEKQKQHSLLPLLHAFEQPSAAENHGVVPAKRFQHAVQAAGIGPVGQDGTTDIPHLSRRLIVKYAKDLEQLGLL
modifications: Mycobacterium massiliense

Tests used:
Assay type in all cases: biochemical
[1] = ω-transaminase activity assay, 7-aminoheptanol to 7-oxoheptanol
Description: A nucleotide sequence encoding an N-terminal His-tag was added to the Chromobacterium violaceum, Pseudomonas syringae and Rhodobacter sphaeroides genes encoding the ω-transaminases of SEQ ID NOs: 8, 10 and 11, respectively (see FIGS. 7F and 7G) such that N-terminal HIS tagged ω-transaminases could be produced. The modified genes were cloned into a pET21a expression vector under the T7 promoter. Each expression vector was transformed into a BL21[DE3] E. coli host. Each resulting recombinant E. coli strain were cultivated at 37° C. in a 250 mL shake flask culture containing 50 mL LB media and antibiotic selection pressure, with shaking at 230 rpm. Each culture was induced overnight at 16° C. using 1 mM IPTG.
(§1) The pellet from each induced shake flask culture was harvested via centrifugation. Each pellet was resuspended and lysed via sonication. The cell debris was separated from the supernatant via centrifugation and the cell free extract was used immediately in enzyme activity assays.
(§2) Enzyme activity assays in the reverse direction (i.e., 7-aminoheptanol to 7-oxoheptanol) were performed in a buffer composed of a final concentration of 50 mM HEPES buffer (pH=7.5), 10 mM 7-aminoheptanol, 10 mM pyruvate, and 100 μM pyridoxyl 5′ phosphate. Each enzyme activity assay reaction was initiated by adding cell free extract of the ω-transaminase gene product or the empty vector control to the assay buffer containing the 7-aminoheptanol and then incubated at 25° C. for 4 h, with shaking at 250 rpm. The formation of L-alanine was quantified via RP-HPLC.

[2] = ω-transaminase activity assay, reverse direction (7-aminoheptanoate to pimelate semialdehyde); conditions: cell free extract, 10 mM 7-aminoheptanoate, 10 mM pyruvate, 25° C., 4 h; against empty vector control; FIG. 15
Description: (§3) A sequence encoding an N-terminal His-tag was added to the genes from Chromobacterium violaceum, Pseudomonas syringae, Rhodobacter sphaeroides, and Vibrio Fluvialis encoding the ω-transaminases of SEQ ID NOs: 8, 10, 11 and 13, respectively (see FIGS. 7F and 7G) such that N-terminal HIS tagged ω-transaminases could be produced. Each of the resulting modified genes was cloned into a pET21a expression vector under control of the T7 promoter and each expression vector was transformed into a BL21[DE3] E. coli host. The resulting recombinant E. coli strains were cultivated at 37° C. in a 250 mL shake flask culture containing 50 mL LB media and antibiotic selection pressure, with shaking at 230 rpm. Each culture was induced overnight at 16° C. using 1 mM IPTG.
as §1
as §2, with “7-aminoheptanoate” for “7-aminoheptanol”, “pimelate semialdehyde)” for “7-oxoheptanol)”, “7-aminoheptanoate,” for “7-aminoheptanol,”, “pyruvate” for “pyruvate,”, “and” for “and then”, “L-alanine from pyruvate” for “L-alanine”

[3] = ω-transaminase activity assay, forward direction (pimelate semialdehyde to 7-aminoheptanoate); conditions: for acceptance of pimelate semialdehyde as substrate (formation of pyruvate from L-alanine, RP-HPLC): cell free extract, 10 mM pimelate semialdehyde, 10 mM L-alanine, 25° C., 4 h, against empty vector control, FIG. 16; for acceptance of pimelate semialdehyde as substrate, synthesizing 7-aminoheptanoate (conclusion from confirmed reversibility): concluded from reversibility of the ω-transaminase activity
Description: as §3, §1
Enzyme activity in the forward direction (i.e., pimelate semialdehyde to 7-aminoheptanoate) was confirmed for the transaminases of SEQ ID NO 10, SEQ ID NO 11 and SEQ ID NO 13. Enzyme activity assays were performed in a buffer composed of a final concentration of 50 mM HEPES buffer (pH=7.5), 10 mM pimelate semialdehyde, 10 mM L-alanine and 100 μM pyridoxyl 5′ phosphate. Each enzyme activity assay reaction was initiated by adding a cell free extract of the ω-transaminase gene product or the empty vector control to the assay buffer containing the pimelate semialdehyde and incubated at 25° C. for 4 h, with shaking at 250 rpm. The formation of pyruvate was quantified via RP-HPLC.

[4] = Carboxylate reductase activity assay, N7-acetyl-7-aminoheptanoate to N7-acetyl-7-aminoheptanal; conditions: purified enzyme enhanced by sfp gene product, 2 mM substrate, room temperature, 20 min; against empty vector control; FIG. 12
Description: The activity of each of the N-terminal His-tagged carboxylate reductases of SEQ ID NOs: 3, 6, and 7 (see Examples 4, and FIGS. 7B, 7E, and 7F) for converting N7-acetyl-7-aminoheptanoate to N7-acetyl-7-aminoheptanal was assayed in triplicate in a buffer composed of a final concentration of 50 mM HEPES buffer (pH=7.5), 2 mM N7-acetyl-7-aminoheptanoate, 10 mM MgCl2, 1 mM ATP, and 1 mM NADPH. The assays were initiated by adding purified carboxylate reductase and phosphopantetheine transferase or the empty vector control to the assay buffer containing the N7-acetyl-7-aminoheptanoate then incubated at room temperature for 20 min. The consumption of NADPH was monitored by absorbance at 340 nm.

Molecule | acceptance of 7-aminoheptanol as substrate (formation of L-alanine, RP-HPLC) ([1]; cell free extract, 10 mM 7-aminoheptanol, 10 mM pyruvate, 25° C., 4 h, against empty vector control, FIG. 19) | acceptance of 7-oxoheptanol as substrate, forming 7-aminoheptanol (concluded from reversibility) ([1]; concluded from reversibility of the ω-transaminase activity (Example 2)) | acceptance of 7-aminoheptanoate as substrate (formation of L-alanine from pyruvate, RP-HPLC) [2] | acceptance of pimelate semialdehyde as substrate (formation of pyruvate from L-alanine, RP-HPLC) [3] | acceptance of pimelate semialdehyde as substrate, synthesizing 7-aminoheptanoate (conclusion from confirmed reversibility) [3] | acceptance of N7-acetyl-7-aminoheptanoate as substrate (NADPH consumption, absorbance at 340 nm) [4]
B1 | accepted 7-aminoheptanol as substrate | accept 7-oxoheptanol as substrate | accepted 7-aminoheptanote as substrate | accepted pimelate semialdehyde as substrate | accepted pimelate semialdehyde as substrate | –
B2 | – | – | accepted 7-aminoheptanote as substrate | accepted pimelate semialdehyde as substrate | accepted pimelate semialdehyde as substrate | –
B3 | – | – | – | – | – | accepted N7-acetyl-7-aminoheptanoate as substrate
B4 | – | – | – | – | – | accepted N7-acetyl-7-aminoheptanoate as substrate
